Assay results reported in the supplement of paper PMC12338614.
± gives the uncertainty stated by the source.

B1: library; numbered along this chain (parent)
chain: MEVVDPQQLGMFTEGELMSVGMDTFIHRIDSTEVIYQPRRKRAKLIGKYLMGDLLGEGSYGKVKEVLDSETLCRRAVKILKKKKLRRIPNGEANVKKEIQLLRRLRHKNVIQLVDVLYNEEKQKMYMVMEYCVCGMQEMLDSVPEKRFPVCQAHGYFCQLIDGLEYLHSQGIVHKDIKPGNLLLTTGGTLKISDLGVAEALHPFAADDTCRTSQGSPAFQPPEIANGLDTFSGFKVDIWSAGVTLYNITTGLYPFEGDNIYKLFENIGKGSYAIPGDCGPPLSDLLKGMLEYEPAKRFSIRQIRQHSWFRKKHPPAEAPVPIPPSPDTKDRWRSMTVVPYLEDLHGADEDEDLFDIEDDIIYTQDFTVPGQVPEEEASHNGQRRGLPKAVCMNGTEAAQLSTKSRAEGRAPNPARKACSASSKIRRLSACKQQ

Variants of: B1
Test: STK11 functional score (HeLa growth suppression), rescaled enrichment; synonymous median = 1, nonsense median = 0 (normalised score)
Conditions: with HeLa; variant type: missense
How it was run: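 Codon-randomised (POPCode) libraries of codon-optimised STK11 were integrated by Bxb1 at an AAVS1 landing pad in HeLa, in three regions each transfected three times. Integrants (BFP-negative, mCherry-positive) were FACS-sorted 4–5 days after electroporation and grown about two weeks; tiled gDNA amplicons were sequenced on NextSeq (~2 million reads per tile). The functional score is the wild-type-corrected post/pre-selection log ratio, rescaled to synonymous and nonsense medians, merged over codons and replicate transfections, with bootstrapped error.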

Row | Variant | STK11 functional score
1 | MEVVDPQQLGMFTEGELMSVGMDTFIHRIDSTEVIYQPRRKRAKLIGKYLMGDLLGEGSYGKVKEVLDSETLCRRAVKILKKKKLRRIPNGEANVKKEIQLLRRLRHKNVIQLVDVLYNEEKQKMYMVMEYCVCGMQEMLDSVPEKRFPVCQAHGYFCQLIDGLEYLHSQGIVHKDIKPGNLLLTTGGTLKISDLGVAEALHPFAADDTCRTSQGSPAFQPPEIANGLDTFSGFKVDIWSAGVTLYNITTGLYPFEGDNIYKLFENIGKGSYAIPGDCGPPLSDLLKGMLEYEPAKRFSIRQIRQHSWFRKKHPPAEAPVPIWPSPDTKDRWRSMTVVPYLEDLHGADEDEDLFDIEDDIIYTQDFTVPGQVPEEEASHNGQRRGLPKAVCMNGTEAAQLSTKSRAEGRAPNPARKACSASSKIRRLSACKQQ [P323W] | 0.993 ± 0.6
2 | MEVVDPQQLGMFTEGELMSVGMDTFIHRIDSTEVIYQPRRKRAKLIGKYLMGDLLGEGSYGKVKEVLDSETLCRRAVKILKKKKLRRIPNGEANVKKEIQLLRRLRHKNVIQLVDVLYNEEKQKMYMVMEYCVCGMQEMLDSVPEKRFPVCQAHGYFCQLIDGLEYLHSQGIVHKDIKPGNLLLTTGGTLKISDLGVAEALHPFAADDTCRTSQGSPAFQPPEIANGLDTFSGFKVDIWSAGVTLYNITTGLYPFEGDNIYKLFENIGKGSYAIPGDCGPPLSDLLKGMLEYEPAKRFSIRQIRQHSWFRKKHPPAEAPVPISPSPDTKDRWRSMTVVPYLEDLHGADEDEDLFDIEDDIIYTQDFTVPGQVPEEEASHNGQRRGLPKAVCMNGTEAAQLSTKSRAEGRAPNPARKACSASSKIRRLSACKQQ [P323S] | 1.3 ± 0.5
3 | MEVVDPQQLGMFTEGELMSVGMDTFIHRIDSTEVIYQPRRKRAKLIGKYLMGDLLGEGSYGKVKEVLDSETLCRRAVKILKKKKLRRIPNGEANVKKEIQLLRRLRHKNVIQLVDVLYNEEKQKMYMVMEYCVCGMQEMLDSVPEKRFPVCQAHGYFCQLIDGLEYLHSQGIVHKDIKPGNLLLTTGGTLKISDLGVAEALHPFAADDTCRTSQGSPAFQPPEIANGLDTFSGFKVDIWSAGVTLYNITTGLYPFEGDNIYKLFENIGKGSYAIPGDCGPPLSDLLKGMLEYEPAKRFSIRQIRQHSWFRKKHPPAEAPVPITPSPDTKDRWRSMTVVPYLEDLHGADEDEDLFDIEDDIIYTQDFTVPGQVPEEEASHNGQRRGLPKAVCMNGTEAAQLSTKSRAEGRAPNPARKACSASSKIRRLSACKQQ [P323T] | 1.32 ± 0.24
4 | MEVVDPQQLGMFTEGELMSVGMDTFIHRIDSTEVIYQPRRKRAKLIGKYLMGDLLGEGSYGKVKEVLDSETLCRRAVKILKKKKLRRIPNGEANVKKEIQLLRRLRHKNVIQLVDVLYNEEKQKMYMVMEYCVCGMQEMLDSVPEKRFPVCQAHGYFCQLIDGLEYLHSQGIVHKDIKPGNLLLTTGGTLKISDLGVAEALHPFAADDTCRTSQGSPAFQPPEIANGLDTFSGFKVDIWSAGVTLYNITTGLYPFEGDNIYKLFENIGKGSYAIPGDCGPPLSDLLKGMLEYEPAKRFSIRQIRQHSWFRKKHPPAEAPVPIVPSPDTKDRWRSMTVVPYLEDLHGADEDEDLFDIEDDIIYTQDFTVPGQVPEEEASHNGQRRGLPKAVCMNGTEAAQLSTKSRAEGRAPNPARKACSASSKIRRLSACKQQ [P323V] | 1.01 ± 0.11
5 | MEVVDPQQLGMFTEGELMSVGMDTFIHRIDSTEVIYQPRRKRAKLIGKYLMGDLLGEGSYGKVKEVLDSETLCRRAVKILKKKKLRRIPNGEANVKKEIQLLRRLRHKNVIQLVDVLYNEEKQKMYMVMEYCVCGMQEMLDSVPEKRFPVCQAHGYFCQLIDGLEYLHSQGIVHKDIKPGNLLLTTGGTLKISDLGVAEALHPFAADDTCRTSQGSPAFQPPEIANGLDTFSGFKVDIWSAGVTLYNITTGLYPFEGDNIYKLFENIGKGSYAIPGDCGPPLSDLLKGMLEYEPAKRFSIRQIRQHSWFRKKHPPAEAPVPIPESPDTKDRWRSMTVVPYLEDLHGADEDEDLFDIEDDIIYTQDFTVPGQVPEEEASHNGQRRGLPKAVCMNGTEAAQLSTKSRAEGRAPNPARKACSASSKIRRLSACKQQ [P324E] | 1.53 ± 0.098
6 | MEVVDPQQLGMFTEGELMSVGMDTFIHRIDSTEVIYQPRRKRAKLIGKYLMGDLLGEGSYGKVKEVLDSETLCRRAVKILKKKKLRRIPNGEANVKKEIQLLRRLRHKNVIQLVDVLYNEEKQKMYMVMEYCVCGMQEMLDSVPEKRFPVCQAHGYFCQLIDGLEYLHSQGIVHKDIKPGNLLLTTGGTLKISDLGVAEALHPFAADDTCRTSQGSPAFQPPEIANGLDTFSGFKVDIWSAGVTLYNITTGLYPFEGDNIYKLFENIGKGSYAIPGDCGPPLSDLLKGMLEYEPAKRFSIRQIRQHSWFRKKHPPAEAPVPIPDSPDTKDRWRSMTVVPYLEDLHGADEDEDLFDIEDDIIYTQDFTVPGQVPEEEASHNGQRRGLPKAVCMNGTEAAQLSTKSRAEGRAPNPARKACSASSKIRRLSACKQQ [P324D] | 1.57 ± 0.18
7 | MEVVDPQQLGMFTEGELMSVGMDTFIHRIDSTEVIYQPRRKRAKLIGKYLMGDLLGEGSYGKVKEVLDSETLCRRAVKILKKKKLRRIPNGEANVKKEIQLLRRLRHKNVIQLVDVLYNEEKQKMYMVMEYCVCGMQEMLDSVPEKRFPVCQAHGYFCQLIDGLEYLHSQGIVHKDIKPGNLLLTTGGTLKISDLGVAEALHPFAADDTCRTSQGSPAFQPPEIANGLDTFSGFKVDIWSAGVTLYNITTGLYPFEGDNIYKLFENIGKGSYAIPGDCGPPLSDLLKGMLEYEPAKRFSIRQIRQHSWFRKKHPPAEAPVPIPKSPDTKDRWRSMTVVPYLEDLHGADEDEDLFDIEDDIIYTQDFTVPGQVPEEEASHNGQRRGLPKAVCMNGTEAAQLSTKSRAEGRAPNPARKACSASSKIRRLSACKQQ [P324K] | 0.708 ± 0.7
